In patent US20240024501A1 (BONUM THERAPEUTICS, published 2024):

What was measured:
human IL-2 [1] = target: T1, human IL-2 (human, UniProt P60568 21-153, biotin label in the IL2RB blocking assay); test: HTRF, IL-2:Fc-IL2RB
T1 construct: also called biotin-labeled IL-2 (Acro Biosystems IL2-H82E4)
Text: (§1) The PURExpress scFv proteins were used directly in HTRF binding assays and cell-based functional assays.

PD-1 = PD-1 (human, UniProt Q15116 25-167, limits assumed); test: HTRF
Text: as §1

human IL-2 [2] = target: T1, human IL-2; test: HTRF
Text: as §1

PD-1-Fc = PD-1-Fc (UniProt Q15116 25-167, limits assumed); test: cell-based or functional assay
Chain of PD-1-Fc (Q15116 25-167 limits assumed): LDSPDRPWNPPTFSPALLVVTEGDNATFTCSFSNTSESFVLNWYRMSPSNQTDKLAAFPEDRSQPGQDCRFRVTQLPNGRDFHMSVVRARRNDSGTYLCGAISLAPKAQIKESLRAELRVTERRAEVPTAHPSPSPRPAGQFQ

T1 sequence (P60568 21-153 limits assumed): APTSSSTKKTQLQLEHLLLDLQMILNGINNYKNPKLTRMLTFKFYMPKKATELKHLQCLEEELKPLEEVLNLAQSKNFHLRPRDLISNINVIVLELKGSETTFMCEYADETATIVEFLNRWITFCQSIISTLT
Chain of PD-1 (Q15116 25-167 limits assumed): as the sequence (Q15116 25-167 limits assumed) above

Row | IL2RB Blocking (HTRF signal) (human IL-2 [1]) | PD1 Binding (HTRF signal) (PD-1) | IL2 Binding (HTRF signal) (human IL-2 [2]) | EC50 of IL-2 activity, HEK-Blue IL-2 reporter cells, IgG1 coated wells (no PD-1) (PD-1-Fc) [pM] | EC50 of IL-2 activity, HEK-Blue IL-2 reporter cells, PD-1 coated wells (PD-1-Fc) [pM] | Binder
1 | 1110 | 50 | 247 |  |  | PD1-IL2-R06-E04 (scFv, cell-free expressed, V5-tagged) scFv: QVQLVQSGAEVKKPGASVKVSCKASGYTFTRYYIHWVRQAPGQGLEWMGWINAYNGDTNYAQKLQGRVTMTRDTSTSTVYMELSSLRSEDTAVYYCARDSYYYDSFDYWGQGTLVTVSSASGGGGSGGGGSGGGGSHASDIQMTQSPSSLSASVGDRVTITCRASQTITDWLAWYQQKPGKAPKLLIYGASNLQGGVPSRFSGSGSGTDFTLTISSLQPEDFATYYCQQYYSSWTFGQGTKVEIK
2 | 1070 | 1300 | 298 |  |  | PD1-IL2-R02-C02 (scFv, cell-free expressed, V5-tagged) scFv: QVQLVQSGAEVKKPGVSVKVSCKASGYTFPRSYIHWVRQAPGQGLEWMGWINPHSGDTYYAQNFQGRVTMTRDTSTSTVYMELSSLRSEDTAVYYCARDTGLGYYYGSGDFDYWGQGTLVTVSSASGGGGSGGGGSGGGGSHASDIQMTQSPSSLSASVGDRVTITCRASQSISRYLNWYQQKPGKAPKLLIYTASSLQSGVPSRFSGSGSGTDFTLTISSLQPEDFATYYCQQANRFPLTFGPGTKVDIK
3 |  |  |  | 419 | 57 | AF4387 (other) heavy 1: APTSSSTKKTQLQLEHLLLDLQMILNGINNYKNPKLTDMLTFEFYMPKKATELKHLQCLERELKPLEEVLNLAQSKNFHLRPRDLISNINVIVLELKGSETTFMCEYADETATIVEFLNRWITFCQSIISTLTGGGGSGGGGSGGGGSGGGGSQVQLVQSGAEVKKPGASVKVSCKASGYTFTDYYMHWVRQAPGQGLEWMGIINPRAGYTSYALKFQGRVTMTRDTSTSTVYMELSSLRSEDTAVYYCTSGWDVWGQGTLVTVSSAKTTAPSVYPLAPVCGDTTGSSVTLGCLVKGYFPEPVTLTWNSGSLSSGVHTFPAVLQSDLYTLSSSVTVTSSTWPSQSITCNVAHPASSTKVDKKIEPRGPTIKPCPPCKCPAPNAAGGPSVFIFPPKIKDVLMISLSPIVTCVVVDVSEDDPDVQISWFVNNVEVHTAQTQTHREDYNSTLRVVSALPIQHQDWMSGKEFKCKVNNKDLGAPIERTISKPKGSVRAPQVYVLPPPEEEMTKKQVTLTCMVTDFMPEDIYVEWTNNGKTELNYKNTEPVLDSDGSYFMYSDLRVEKKNWVERNSYSCSVVHEGLHNHHTTESFSRTPGK heavy 2: QVQLVQSGAEVKKPGASVKVSCKASGYTFTDYYMHWVRQAPGQGLEWMGIINPRAGYTSYALKFQGRVTMTRDTSTSTVYMELSSLRSEDTAVYYCTSGWDVWGQGTLVTVSSAKTTAPSVYPLAPVCGDTTGSSVTLGCLVKGYFPEPVTLTWNSGSLSSGVHTFPAVLQSDLYTLSSSVTVTSSTWPSQSITCNVAHPASSTKVDKKIEPRGPTIKPCPPCKCPAPNAAGGPSVFIFPPKIKDVLMISLSPIVTCVVVDVSEDDPDVQISWFVNNVEVHTAQTQTHREDYNSTLRVVSALPIQHQDWMSGKEFKCKVNNKDLGAPIERTISKPKGSVRAPQVYVLPPPEKEMTKKQVSLTCLVKDFMPEDIYVEWTNNGKTELNYKNTEPVLKSDGSYFMYSKLTVEKKNWVERNSYSCSVVHEGLHNHHTTKSFSRTPGGGGSGGGSHHHHHH light: DIQMTQSPSSLSASVGDRVTITCRASQSISTWLAWYQQKPGKAPKLLIYAASSLDSGVPSRFSGSGSGTDFTLTISSLQPEDFATYYCQQSYSFPVTFGQGTKVEIKRADAAPTVSIFPPSSEQLTSGGASVVCFLNNFYPKDINVKWKIDGSERQNGVLNSWTDQDSKDSTYSMSSTLTLTKDEYERHNSYTCEATHKTSTSPIVKSFNRNEC
4 | 1210 | 1380 | 293 |  |  | PD1-IL2-R02-C03 (scFv, cell-free expressed, V5-tagged) scFv: QVQLVQSGAEVKKPGASVKVSCKASGYTFPRYHIHWVRQAPGQGLEWMGMINPSGGTTTYAQKFQGRVTMTRDTSTSTVYMELSSLRSEDTAVYYCARDTGLGYYYGSGDFDYWGQGTLVTVSSASGGGGSGGGGSGGGGSHASDIQMTQSPSSLSASVGDRVTITCRASQSISSWLAWYQQKPGKAPKLLIYAASSLQSGVPSRFSGSGSGTDFTLTISSLQPEDFATYYCQQSHSFPLTFGGGTKVEIK
5 | 1610 | 730 | 973 |  |  | PD1-IL2-R07-A04 (scFv) scFv: QVQLVQSGAEVKKPGASVKVSCKASGYTFTDYYMHWVRQAPGQGLEWMGIINPRAGYTSYALKFQGRVTMTRDTSTSTVYMELSSLRSEDTAVYYCTSGMDVWGQGTLVTVSSASGGGGSGGGGSGGGGSHASDIQMTQSPSSLSASVGDRVTITCRASQSISTWLAWYQQKPGKAPKLLIYAASSLQSGVPSRFSGSGSGTDFTLTISSLQPEDFATYYCQQSYSFPVTFGQGTKVEIK
6 | 1810 | 1680 | 628 |  |  | PD1-IL2-R02-B07 (scFv) scFv: QVQLVQSGAEVKKPGASVKVSCKASGDTFTRHYVHWVRQAPGQGLEWMGIINPSGGYASYAQKFQGRVTMTRDTSTSTVYMELSSLRSEDTAVYYCAAGLFIWGQGTLVTVSSASGGGGSGGGGSGGGGSHASDIQMTQSPSSLSASVGDRVTITCRASQSIGRWLAWYQQKPGKAPKLLIYSASNLETGVPSRFSGSGSGTDFTLTISSLQPEDFATYYCQQANSFPVTFGPGTKVDIK
7 | 1780 | 1620 | 1560 |  |  | PD1-IL2-R02-A11 (scFv) scFv: QVQLVQSGAEVKKPGASVKVSCKASGHTFTRYYMHWVRQAPGQGLEWMGIINPSGGYATYAQKFQGRVTMTRDTSTSTVYMELSSLRSEDTAVYYCASGWDVWGQGTLVTVSSASGGGGSGGGGSGGGGSHASDIQMTQSPSSLSASVGDRVTITCRASQSINSWLAWYQQKPGKAPKLLIYATSTLESGVPSRFSGSGSGTDFTLTISSLQPEDFATYYCQQSYSFPPTFGQGTKVEIK
8 | 1610 | 1660 | 2490 |  |  | PD1-IL2-R02-B05 (scFv) scFv: QVQLVQSGAEVKKPGASVKVSCKASGYTFTNYYIHWVRQAPGQGLEWMGIINPRAGYTSYALKFQGRVTMTRDTSTSTVYMELSSLRSEDTAVYYCAGGWLDWGQGTLVTVSSASGGGGSGGGGSGGGGSHASDIQMTQSPSSLSASVGDRVTITCRASQSISSWLAWYQQKPGKAPKLLIYAASSLQSGVPSRFSGSGSGTDFTLTISSLQPEDFATYYCQQSFTMPITFGQGTRLEIK
9 | 1610 | 995 | 520 |  |  | PD1-IL2-R02-A08 (scFv) scFv: QVQLVQSGAEVKKPGASVKVSCKVSGYTFTSYDINWVRQAPGQGLEWMGWINPNSGDTGYAQKFQGRVTMTRDTSTSTVYMELSSLRSEDTAVYYCARDTGLGYYYGSGDFDYWGQGTLVTVSSASGGGGSGGGGSGGGGSHASDIQMTQSPSSLSASVGDRVTITCQASQDIHNYLNWYQQKPGKAPKLLIYDVSNLETGVPSRFSGSGSGTDFTLTISSLQPEDFATYYCQQAISFPLTFGGGTKVEIK
10 | 910 | 1240 | 2040 |  |  | PD1-IL2-R07-A09 (scFv, cell-free expressed, V5-tagged) scFv: QVQLVQSGAEVKKPGASVKVSCKASGYTFTSYYMHWVRQAPGQGLEWMGIINPSDGSTTYAQSFQGRVTMTRDTSTSTVYMELSSLRSEDTAVYYCASGWDVWGQGTLVTVSSASGGGGSGGGGSGGGGSHASDIVMTQSPDSLAVSLGERATINCKSSQSVFSSANNKNYLAWYQQKPGQPPKLLIYWASTRESGVPDRFSGSGSGTDFTLTISSLQAEDVAVYYCQQYFGTPVTFGGGTKVEIK
